Earlier results, collected in article PMC5650667.
Blank lines part the entries; values can stand above or below the substance they belong to.

How the values were obtained:
[1] = target: TRH1 receptor (Homo sapiens) (UniProt P34981); test: radioligand binding
[2] = target: RXFP4 (Homo sapiens) (UniProt Q8TDU9)
[3] = target: RXFP2 (Homo sapiens) (UniProt Q8WXD0)
Sequence of UniProt Q8WXD0 (Q8WXD0 whole entry): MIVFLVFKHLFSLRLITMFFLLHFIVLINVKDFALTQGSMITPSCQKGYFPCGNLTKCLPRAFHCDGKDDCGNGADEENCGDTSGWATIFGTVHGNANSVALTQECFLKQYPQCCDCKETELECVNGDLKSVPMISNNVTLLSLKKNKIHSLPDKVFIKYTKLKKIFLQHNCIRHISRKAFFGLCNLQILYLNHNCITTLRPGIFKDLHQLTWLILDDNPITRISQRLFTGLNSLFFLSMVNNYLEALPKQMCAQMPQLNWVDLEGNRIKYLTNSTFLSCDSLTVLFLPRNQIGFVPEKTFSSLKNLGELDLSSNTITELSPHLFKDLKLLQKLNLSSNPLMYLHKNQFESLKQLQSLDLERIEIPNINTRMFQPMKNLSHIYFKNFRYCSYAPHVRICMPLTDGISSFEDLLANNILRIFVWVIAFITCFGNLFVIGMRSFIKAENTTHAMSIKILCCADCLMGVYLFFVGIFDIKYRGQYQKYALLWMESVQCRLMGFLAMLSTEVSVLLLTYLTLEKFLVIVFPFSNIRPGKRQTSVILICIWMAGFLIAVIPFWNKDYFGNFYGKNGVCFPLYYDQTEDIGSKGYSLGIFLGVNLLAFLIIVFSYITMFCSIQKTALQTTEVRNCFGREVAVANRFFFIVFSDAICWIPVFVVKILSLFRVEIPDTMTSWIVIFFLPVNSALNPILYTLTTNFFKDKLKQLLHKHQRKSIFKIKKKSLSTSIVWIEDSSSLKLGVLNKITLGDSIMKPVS

Sequence of UniProt Q8TDU9 (Q8TDU9 whole entry): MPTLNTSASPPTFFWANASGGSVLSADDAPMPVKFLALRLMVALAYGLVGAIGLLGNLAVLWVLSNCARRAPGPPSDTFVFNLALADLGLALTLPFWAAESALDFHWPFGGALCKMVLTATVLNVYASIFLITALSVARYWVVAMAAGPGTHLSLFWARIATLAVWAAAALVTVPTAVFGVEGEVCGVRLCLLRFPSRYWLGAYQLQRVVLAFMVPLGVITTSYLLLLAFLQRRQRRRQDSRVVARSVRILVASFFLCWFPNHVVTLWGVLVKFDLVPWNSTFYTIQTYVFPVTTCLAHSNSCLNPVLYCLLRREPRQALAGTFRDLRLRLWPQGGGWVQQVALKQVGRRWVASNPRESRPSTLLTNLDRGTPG
Sequence of UniProt P34981 (P34981 whole entry): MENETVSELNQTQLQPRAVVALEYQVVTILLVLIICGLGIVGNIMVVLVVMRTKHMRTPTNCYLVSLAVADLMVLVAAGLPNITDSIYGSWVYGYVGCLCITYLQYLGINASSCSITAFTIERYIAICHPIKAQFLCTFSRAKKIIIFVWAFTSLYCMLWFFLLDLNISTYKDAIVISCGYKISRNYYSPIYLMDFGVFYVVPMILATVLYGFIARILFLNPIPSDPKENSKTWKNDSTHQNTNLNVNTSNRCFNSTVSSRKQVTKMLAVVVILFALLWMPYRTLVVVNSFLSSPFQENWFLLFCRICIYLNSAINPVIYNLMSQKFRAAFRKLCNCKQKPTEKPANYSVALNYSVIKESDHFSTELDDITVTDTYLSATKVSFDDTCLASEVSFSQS

- Kd [1]: 13 nM
Substance: TRH (from UniProt P20396)

- Kd [2]: 5 nM
Substance: INSL5 (from UniProt Q9Y5Q6)

- Kd [3]: 1 nM
Substance: INSL3 (from UniProt P51460)
